Measured values as given in paper PMC6644000 (Cell, 2019).

Target: T1, REV1 C-terminal domain (CTD) (mouse, UniProt Q920Q2 1150-1249)
T1 sequence (looked up): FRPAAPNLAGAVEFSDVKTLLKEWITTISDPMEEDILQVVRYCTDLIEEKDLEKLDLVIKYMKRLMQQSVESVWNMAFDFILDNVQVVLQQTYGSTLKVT
Assay: crystal structure

KSFFDKKRSERISN (domain or fragment, mouse, UniProt Q9QUG2 564-577, looked up) [POL κ RIR (REV1-interacting region) peptide]
binding result: binds
